Experiment: Fluorescence emission spectra without and with saturating ligand (wavelength shift, ΔIstd, ΔRmax)
Details: unbound vs ligand-saturated; for ΔIstd: standard intensity change; for ΔRmax: standard ratiometric change
Experimental: Fluorimetry. All measurements were conducted with an SLM Aminco-Bowman series 2 fluorimeter, with sample stirring at 25° C. Fluorescence emission spectra were acquired with excitation and emission slit widths of 4 and 8 nm, respectively. Photomultiplier tube potential was maintained between 400 and 800 volts. Protein concentrations were in the range of 50 to 1000 nM. Fluorophore-specific excitation was at the following approximate wavelengths: tryptophan, 290 nm; acrylodan, 390 nm; fluorescein, 485 nm; pyrene, 340 nm; NBD and NBDE, 490 nm; JPW4039, 485 nm; JPW4042, 470 nm; JPW4045, 470 nm.
Assessment of fluorescent biosensor function. Fluorescence emission spectra of bPBP-fluorophore conjugates were recorded in the absence and presence of saturating ligand concentrations. Spectral changes were characterized by four parameters: wavelength shift (the difference between the wavelengths of emission maximum in the unbound and ligand-saturated states), direction of intensity change (increase or decrease in intensity at the wavelengths of maximum emission in the two states), standard intensity change (ΔIstd), and standard ratiometric change (ΔR). ΔIstd is defined as the normalized intensity change relative to the average intensity, determined at the wavelength mid-point between the two emission maxima:
[formula] where λstd=(λmax, unbound+λmax, saturated)/2 and I1, I2 are the fluorescence intensities at λstd of each spectrum respectively (FIG. 4A). ΔR is defined in terms of two emission bands, A1 ([λ1, λ2]) and A2 ([λ3, λ4]) (FIG. 4B):
[formula] where ^∘A1, […] the areas in the absence of ligand, and ^∞A1, ^∞A2 the areas in the presence of saturating ligand. A computer program was used to enumerate ΔR for all possible pairs of wavelength bands in the two spectra, to identify the optimal sensing condition, defined as the maximum value of ΔR. Adjustable parameters of the algorithm, and their values used for ΔRmax quantities reported here, are: step size (2 nm), step width (10 nm), minimum integration area limit (fraction of total: 0.1), and maximum integration area limit (fraction of total: 1).

B1: ribose BP L236C NBD (conjugate, UniProt P02925 26-296, looked up, variant L236C)
Ribose import binding protein …: KDTIALVVSTLNNPFFVSLKDGAQKEADKLGYNLVVLDSQNNPAKELANVQDLTVRGTKILLINPTDSDAVGNAVKMANQANIPVITLDRQATKGEVVSHIASDNVLGGKIAGDYIAKKAGEGAKVIELQGIAGTSAARERGEGFQQAVAAHKFNVLASQPADFDRIKGLNVMQNLLTAHPDVQAVFAQNDEMALGALRALQTAGKSDVMVVGFDGTPDGEKAVNDGKLAATIAQCPDQIGAKGVETADKVLKGEKVQAKYPVDLKLVVKQ
modifications: NBD label
Which results are given for B1?
ΔIstd: 0.11; ΔRmax: 1.96

B2: ribose BP L265C NBD (conjugate, UniProt P02925 26-296, looked up, variant L265C)
Ribose import binding protein …: KDTIALVVSTLNNPFFVSLKDGAQKEADKLGYNLVVLDSQNNPAKELANVQDLTVRGTKILLINPTDSDAVGNAVKMANQANIPVITLDRQATKGEVVSHIASDNVLGGKIAGDYIAKKAGEGAKVIELQGIAGTSAARERGEGFQQAVAAHKFNVLASQPADFDRIKGLNVMQNLLTAHPDVQAVFAQNDEMALGALRALQTAGKSDVMVVGFDGTPDGEKAVNDGKLAATIAQLPDQIGAKGVETADKVLKGEKVQAKYPVDCKLVVKQ
modifications: NBD dye conjugate
With B2 as the molecule, how does the ΔIstd read?
Its ΔIstd is 0.01.

What about the ΔRmax of the same molecule?
Its ΔRmax is 0.13.

B3: ribose BP L265C JPW4045 (conjugate, UniProt P02925 26-296, looked up, variant L265C)
Ribose import binding protein …: KDTIALVVSTLNNPFFVSLKDGAQKEADKLGYNLVVLDSQNNPAKELANVQDLTVRGTKILLINPTDSDAVGNAVKMANQANIPVITLDRQATKGEVVSHIASDNVLGGKIAGDYIAKKAGEGAKVIELQGIAGTSAARERGEGFQQAVAAHKFNVLASQPADFDRIKGLNVMQNLLTAHPDVQAVFAQNDEMALGALRALQTAGKSDVMVVGFDGTPDGEKAVNDGKLAATIAQLPDQIGAKGVETADKVLKGEKVQAKYPVDCKLVVKQ
modifications: JPW4045 label
For B3, which ΔIstd is on record?
The ΔIstd was 0.02.

What about the ΔRmax of the same molecule?
Its ΔRmax is 0.12.

B4: ribose BP L265C JPW4042 (conjugate, UniProt P02925 26-296, looked up, variant L265C)
Ribose import binding protein …: KDTIALVVSTLNNPFFVSLKDGAQKEADKLGYNLVVLDSQNNPAKELANVQDLTVRGTKILLINPTDSDAVGNAVKMANQANIPVITLDRQATKGEVVSHIASDNVLGGKIAGDYIAKKAGEGAKVIELQGIAGTSAARERGEGFQQAVAAHKFNVLASQPADFDRIKGLNVMQNLLTAHPDVQAVFAQNDEMALGALRALQTAGKSDVMVVGFDGTPDGEKAVNDGKLAATIAQLPDQIGAKGVETADKVLKGEKVQAKYPVDCKLVVKQ
modifications: JPW4042 label
For B4, which ΔIstd is on record?
Its ΔIstd is 0.91.

What about the ΔRmax of the same molecule?
Its ΔRmax is 2.13.

B5: ribose BP L265C Acrylodan (conjugate, UniProt P02925 26-296, looked up, variant L265C)
Ribose import binding protein …: KDTIALVVSTLNNPFFVSLKDGAQKEADKLGYNLVVLDSQNNPAKELANVQDLTVRGTKILLINPTDSDAVGNAVKMANQANIPVITLDRQATKGEVVSHIASDNVLGGKIAGDYIAKKAGEGAKVIELQGIAGTSAARERGEGFQQAVAAHKFNVLASQPADFDRIKGLNVMQNLLTAHPDVQAVFAQNDEMALGALRALQTAGKSDVMVVGFDGTPDGEKAVNDGKLAATIAQLPDQIGAKGVETADKVLKGEKVQAKYPVDCKLVVKQ
modifications: acrylodan conjugate
What does the source list for B5?
ΔIstd: 0.20; ΔRmax: 0.70

B6: ribose BP L265C JPW4039 (conjugate, UniProt P02925 26-296, looked up, variant L265C)
Ribose import binding protein …: KDTIALVVSTLNNPFFVSLKDGAQKEADKLGYNLVVLDSQNNPAKELANVQDLTVRGTKILLINPTDSDAVGNAVKMANQANIPVITLDRQATKGEVVSHIASDNVLGGKIAGDYIAKKAGEGAKVIELQGIAGTSAARERGEGFQQAVAAHKFNVLASQPADFDRIKGLNVMQNLLTAHPDVQAVFAQNDEMALGALRALQTAGKSDVMVVGFDGTPDGEKAVNDGKLAATIAQLPDQIGAKGVETADKVLKGEKVQAKYPVDCKLVVKQ
modifications: JPW4039 label
Which ΔIstd does the source give for B6 here?
Its ΔIstd is 0.01.

What about the ΔRmax of the same molecule?
The ΔRmax was 0.11.
